Experimental findings from patent publication EP4814011A1 (Shanghai Huaota Biopharmaceutical Co., Ltd., dated 2026) are described below.

The target in assay [1] is Human TSLP (form and source not stated) (human, UniProt Q969D9 29-159, limits assumed). Description: cell-based or functional assay.
Assay [2] deals with T1, human TSLP with His tag (ACRO, TSP-H52Ha) (human, UniProt Q969D9 29-159).
T1 construct: Bought protein; also called human TSLP antigens; Human TSLP (Acro, #TSP-H52Ha); not shown: His tag
In words: SPR, His-TSLP captured on anti-His CM5, antibody analyte.

Assay [3] deals with T2, monkey TSLP antigen (R127A, R130S) Protein, His Tag (ACRO, Cat#: TSP-C52H4) (monkey, UniProt A0A7N9CAT7 29-159).
T2 construct: Bought protein
The assay is described as above.

In assay [4] the target is T3, Lysozyme solution from chicken egg (chicken, UniProt P00698 19-147).
T3 construct: Amine coupled to a CM5 chip
In words: SPR, protein coupled to CM5.

In assay [5] the target is T4, Trypsin inhibitor type 1-S from Glycine max (Glycine max, UniProt P01070 25-205).
T4 construct: Amine coupled to a CM5 chip
T4 sequence (looked up): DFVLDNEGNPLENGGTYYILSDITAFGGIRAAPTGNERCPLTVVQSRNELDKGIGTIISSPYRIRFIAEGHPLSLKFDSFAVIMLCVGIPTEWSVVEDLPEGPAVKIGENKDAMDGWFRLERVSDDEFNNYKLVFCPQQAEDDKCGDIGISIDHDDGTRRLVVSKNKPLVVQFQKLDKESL
Description: SPR, protein coupled to CM5. On the technique in general: SPR reads the build-up and loss of mass on a sensor chip optically.

T2 sequence (A0A7N9CAT7 entry or part of it R127A R130S R127A R130S limits assumed, form in doubt): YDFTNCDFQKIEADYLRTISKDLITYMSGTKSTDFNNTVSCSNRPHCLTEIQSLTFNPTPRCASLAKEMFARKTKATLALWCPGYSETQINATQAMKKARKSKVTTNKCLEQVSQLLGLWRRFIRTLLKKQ
T3 sequence (P00698 19-147 limits assumed): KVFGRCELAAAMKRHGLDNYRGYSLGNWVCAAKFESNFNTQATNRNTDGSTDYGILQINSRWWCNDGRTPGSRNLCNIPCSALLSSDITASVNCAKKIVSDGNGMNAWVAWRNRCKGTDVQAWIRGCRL

B1: 900792-huH4L2 (antibody, human IgG1, kappa, L234A L235A, V domains shown)
VH: QVQLVQSGAEVKKPGASVKVSCKASGYAFTNYLIEWVRQAPGQGLEWMGIINPESGDTYYAQKFQGRVTLTADKSTSTAYMELSSLRSEDSAVYYCAKESLTGSSYDYWGQGTTLTVSS
VL: DIQMTQSPSSLSASVGDRVTITCRASENIYSNLVWYQQKPGKAPQLLVYGARNLQSGVPSRFSGSGSGTQFSLTISSLQPEDFATYYCQHFYETPLTFGTGTKLEIKR
notes: Humanized
In the case of B1, the “TARC in PBMC supernatant (ELISA)” value in assay [1] is ~10 times better than Tezepelumab. In assay [2], this molecule gave a Kd of 0.234 nM, a koff of 0.000174 s⁻¹ and a kon of 743000 M⁻¹ s⁻¹. For the same molecule, in assay [3], the Kd is 3.99 nM, the koff is 0.013 s⁻¹ and the kon was 3.27e+06 M⁻¹ s⁻¹. Further, the “binding response (RU)” value in assay [4] was 3.3 RU. Further, in assay [5], the “binding response (RU)” value stood at 8.6 RU.

B2: 900792-huH4L3 (antibody, human IgG1, kappa, L234A L235A, V domains shown)
VH: QVQLVQSGAEVKKPGASVKVSCKASGYAFTNYLIEWVRQAPGQGLEWMGIINPESGDTYYAQKFQGRVTLTADKSTSTAYMELSSLRSEDSAVYYCAKESLTGSSYDYWGQGTTLTVSS
VL: DIQMTQSPSSLSASVGDRVTITCRASENIYSNLVWYQQKPGKAPQLLIYGARNLQSGVPSRFSGSGSGTQFTLTISSLQPEDFATYYCQHFYETPLTFGTGTKLEIKR
notes: Humanized
In the case of B2, in assay [1], the “TARC in PBMC supernatant (ELISA)” value was ~10 times better than Tezepelumab. Further, in assay [2], the Kd came to 0.157 nM, the koff came out at 0.000121 s⁻¹ and the kon is 771000 M⁻¹ s⁻¹. In assay [3], the affinity, expressed as Kd, was 4.18 nM; the koff is 0.00989 s⁻¹; the kon stood at 2.37e+06 M⁻¹ s⁻¹. Besides, the “binding response (RU)” value in assay [4] was 2.4 RU. For the same molecule, the “binding response (RU)” value in assay [5] is 6.6 RU.

One may read the Kd as a measure of binding affinity in units of concentration. In general, koff refers to the rate constant with which the complex falls apart. The term kon denotes the rate constant with which the complex forms.
